{
  "source": "paper PMC9596371",
  "about": "(Nature Chemical Biology, 2022)",
  "data": [
    {"biological_target": "T1, SARS-CoV-1 spike protein (FL-GCN4-Avi-His, 2P, biotinylated trimer) (SARS-CoV (SARS-CoV-1), strain of …, UniProt P59594, stabilised, biotin on the Avi tag)", "experiment": "BLI", "conditions": "both partners purified", "values": [
      {"binder": "COVA2-18 IgG (antibody, V domains shown) VH: EVQLVQSGAEVKKPGSSVKVSCKASGGTFSSYAISWVRQAPGQGLEWMGGIIPIFGTTNYAQKFQGRVTITTDESTSTAYMELSSLRSEDTAVYYCARVYSYDSSGYYLEYWGQGTRVTVSS VL: EIVLTQSPATLSLSPGERATLSCRASQSVSSYLAWYQQKPGQAPRLLIYDASNRATGIPARFSGSGSGTDFTLTISSLEPEDFAVYYCQQRSNWPPSITFGQGTRLEIK", "binding result": "binds"},
      {"binder": "CV27 IgG (antibody, V domains shown) VH: QVQLVESGGGVVQPGRSLRLSCAASGFTFSSYAMHWVRQAPGKGLEWVALISYDGSNKYYADSVKGRFTISRDNSKNTLYLQMNSLRAEDTAVYYCARSFGGSYYYGMDVWGQGTTVTVSS VL: QSALTQPASVSGSPGQSITISCTGTSSDVGGYNYVSWYQQHPGKAPKLMIYDVSNRPSGVSNRFSGSKSGNTASLTISGLQAEDEADYYCSSYTSSSTPYVFGTGTKVTVL", "binding result": "binds"},
      {"binder": "COV2-2147 IgG (antibody, V domains shown) VH: QVQLAESGGGVVQPGRSLRLSCAASGFTFSSYAMHWVRQAPGKGLEWVAVISYDGSNKYYADSVKGRFTISRDNSKNTLYLQMNSLRAEDTAVYYCARSTSGSYYYGMDVWGQGTTVTVSS VL: QSALTQPASVSGSPGQSITISCTGTSSDVGDYNYVSWYQQHPGKAPKLMIYDVSNRPSGVSNRFSGSKSGNTASLTISGLQAEDEAEYYCSSYTSSSTLLYVFGTGTKVTVL", "binding result": "binds"}
    ]},
    {"biological_target": "T1, SARS-CoV-1 spike protein …", "experiment": "ELISA", "conditions": "both partners purified", "values": [
      {"binder": "COV2-2449 IgG (antibody, V domains shown) VH: QVQLVESGGGVVQPGRSLRLSCATSGFTFSSFALHWVRQAPGKGLEWVTVISDDGNNKYYVDSVKGRFTISRDNSKNTLFLQMNSLRVEDTAIYYCARASYNSNWSIGEYFRDWGQGTLVTVSS VL: not shown", "binding result": "binds"},
      {"binder": "COVA2-14 IgG (antibody, V domains shown) VH: QVQLVQSGAEVKKPGSSVKVSCKASGGTFSSYAIIWVRQAPGQGLEWMGGIIPIFGTANYAQKFQGRVTITTDESTSTAYMELSSLRSEDTAVYYCARVRYYDSSGYYEDYWGQGTLVTVSS VL: EIVLTQSPATLSLSPGERATLSCRASQSVSSYLAWYQQEPGQAPRLLIYDASNRATGIPARFSGSGSGTDFTLTISSLEPEDFAVYYCQQRSNWPPMYTFGQGTKVEIK", "binding result": "binds"},
      {"binder": "COV2-2143 IgG (antibody, V domains shown) VH: EVQLVESGGGLVQPGGSLRLSCAASGFTVSSNYMSWVRQAPGKGLEWVSVIYSAGSTYYADSVKGRFSISRDKSKNTLYLQMNSLRAEDTAVYYCAKEGGSGSLRYYYYGMDVWGQGTTVTVSS VL: not shown", "binding result": "binds"}
    ]}
  ]
}
